Results: article doi:10.1101/197186 (bioRxiv, 2017)

Target: the molecule itself
Test: SEC

B1: human MORC2(1-603) S87L (domain or fragment)
chain: MAFTNYSSLNRAQLTFEYLHTNSTTHEFLFGALAELVDNARDADATRIDIYAERREDLRGGFMLCFLDDGAGMDPSDAASVIQFGKLAKRTPESTQIGQYGNGLKSGSMRIGKDFILFTKKEDTMTCLFLSRTFHEEEGIDEVIVPLPTWNARTREPVTDNVEKFAIETELIYKYSPFRTEEEVMTQFMKIPGDSGTLVIIFNLKLMDNGEPELDIISNPRDIQMAETSPEGTKPERRSFRAYAAVLYIDPRMRIFIHGHKVQTKRLSCCLYKPRMYKYTSSRFKTRAEQEVKKAEHVARIAEEKAREAESKARTLEVRLGGDLTRDSRVMLRQVQNRAITLRREADVKKRIKEAKQRALKEPKELNFVFGVNIEHRDLDGMFIYNCSRLIKMYEKVGPQLEGGMACGGVVGVVDVPYLVLEPTHNKQDFADAKEYRHLLRAMGEHLAQYWKDIAIAQRGIIKFWDEFGYLSANWNQPPSSELRYKRRRAMEIPTTIQCDLCLKWRTLPFQLSSVEKDYPDTWVCSMNPDPEQDRCEASEQKQKVPLGTFRKDMKTQEEKQKQLTEKIRQQQEKLEALQKTTPIRSQADLKKLPLEVTTRPST
- stoichiometry N: 2
